According to paper PMC7072297, “Structural Determinants Responsible for the Preferential Insertion of Ribonucleotides by Bacterial NHEJ PolDom” (Biomolecules, 2020):

Substrate: Nc1nc2c(ncn2[C@@H]2O[C@H](COP(=O)(O)OP(=O)(O)OP(=O)(O)O)[C@@H](O)[C@H]2O)c(=O)[nH]1
Assay: steady-state primer extension, denaturing PAGE
Assay type: biochemical, Pseudomonas aeruginosa
Details: 200 nM primer/template DNA (Cy5P/T29(A)), misinsertion opposite template dA, 5 mM MnCl2, pH 7.5, 30 °C
From the text: steady-state primer extension, denaturing PAGE on Pa-PolDom

B1: Pa-PolDom (Pseudomonas aeruginosa PAO1) (protein)
chain: GARKASAGASRAATAGVRISHPQRLIDPSIQASKLELAEFHARYADLLLRDLRERPVSLVRGPDGIGGELFFQKHAARLKIPGIVQLDPALDPGHPPLLQIRSAEALVGAVQMGSIEFHTWNASLANLERPDRFVLDLDPDPALPWKRMLEATQLSLTLLDELGLRAFLKTSGGKGMHLLVPLERRHGWDEVKDFAQAISQHLARLMPERFSAVSGPRNRVGKIFVDYLRNSRGASTVAAYSVRAREGLPVSVPVFREELDSLQGANQWNLRSLPQRLDELAGDDPWADYAGTRQRISAAMRRQLGRG
notes: polymerization domain, residues 533-840; Arg532 codon replaced by start Met; E. coli BL21(DE3)
**Q.** B1 was tested. Which Km did it give?
**A.** 1.211 ± 0.09 µM

**Q.** What about the kcat of the same protein?
**A.** 0.92 ± 0.02 s⁻¹
